Results on one variant are retold here after IntAct's records for PubMed 31036956.

To fix the notation:
B1: Proto-oncogene Wnt-3 (Homo sapiens), P56703 (parent)
chain: MEPHLLGLLLGLLLGGTRVLAGYPIWWSLALGQQYTSLGSQPLLCGSIPGLVPKQLRFCRNYIEIMPSVAEGVKLGIQECQHQFRGRRWNCTTIDDSLAIFGPVLDKATRESAFVHAIASAGVAFAVTRSCAEGTSTICGCDSHHKGPPGEGWKWGGCSEDADFGVLVSREFADARENRPDARSAMNKHNNEAGRTTILDHMHLKCKCHGLSGSCEVKTCWWAQPDFRAIGDFLKDKYDSASEMVVEKHRESRGWVETLRAKYSLFKPPTERDLVYYENSPNFCEPNPETGSFGTRDRTCNVTSHGIDGCDLLCCGRGHNTRTEKRKEKCHCIFHWCCYVSCQECIRIYDVHTCK

Variants of B1 are the subject of this test. The note with it: with lrp6_human LRP6, O75581.
Chain of lrp6_human LRP6, O75581 (O75581 whole entry): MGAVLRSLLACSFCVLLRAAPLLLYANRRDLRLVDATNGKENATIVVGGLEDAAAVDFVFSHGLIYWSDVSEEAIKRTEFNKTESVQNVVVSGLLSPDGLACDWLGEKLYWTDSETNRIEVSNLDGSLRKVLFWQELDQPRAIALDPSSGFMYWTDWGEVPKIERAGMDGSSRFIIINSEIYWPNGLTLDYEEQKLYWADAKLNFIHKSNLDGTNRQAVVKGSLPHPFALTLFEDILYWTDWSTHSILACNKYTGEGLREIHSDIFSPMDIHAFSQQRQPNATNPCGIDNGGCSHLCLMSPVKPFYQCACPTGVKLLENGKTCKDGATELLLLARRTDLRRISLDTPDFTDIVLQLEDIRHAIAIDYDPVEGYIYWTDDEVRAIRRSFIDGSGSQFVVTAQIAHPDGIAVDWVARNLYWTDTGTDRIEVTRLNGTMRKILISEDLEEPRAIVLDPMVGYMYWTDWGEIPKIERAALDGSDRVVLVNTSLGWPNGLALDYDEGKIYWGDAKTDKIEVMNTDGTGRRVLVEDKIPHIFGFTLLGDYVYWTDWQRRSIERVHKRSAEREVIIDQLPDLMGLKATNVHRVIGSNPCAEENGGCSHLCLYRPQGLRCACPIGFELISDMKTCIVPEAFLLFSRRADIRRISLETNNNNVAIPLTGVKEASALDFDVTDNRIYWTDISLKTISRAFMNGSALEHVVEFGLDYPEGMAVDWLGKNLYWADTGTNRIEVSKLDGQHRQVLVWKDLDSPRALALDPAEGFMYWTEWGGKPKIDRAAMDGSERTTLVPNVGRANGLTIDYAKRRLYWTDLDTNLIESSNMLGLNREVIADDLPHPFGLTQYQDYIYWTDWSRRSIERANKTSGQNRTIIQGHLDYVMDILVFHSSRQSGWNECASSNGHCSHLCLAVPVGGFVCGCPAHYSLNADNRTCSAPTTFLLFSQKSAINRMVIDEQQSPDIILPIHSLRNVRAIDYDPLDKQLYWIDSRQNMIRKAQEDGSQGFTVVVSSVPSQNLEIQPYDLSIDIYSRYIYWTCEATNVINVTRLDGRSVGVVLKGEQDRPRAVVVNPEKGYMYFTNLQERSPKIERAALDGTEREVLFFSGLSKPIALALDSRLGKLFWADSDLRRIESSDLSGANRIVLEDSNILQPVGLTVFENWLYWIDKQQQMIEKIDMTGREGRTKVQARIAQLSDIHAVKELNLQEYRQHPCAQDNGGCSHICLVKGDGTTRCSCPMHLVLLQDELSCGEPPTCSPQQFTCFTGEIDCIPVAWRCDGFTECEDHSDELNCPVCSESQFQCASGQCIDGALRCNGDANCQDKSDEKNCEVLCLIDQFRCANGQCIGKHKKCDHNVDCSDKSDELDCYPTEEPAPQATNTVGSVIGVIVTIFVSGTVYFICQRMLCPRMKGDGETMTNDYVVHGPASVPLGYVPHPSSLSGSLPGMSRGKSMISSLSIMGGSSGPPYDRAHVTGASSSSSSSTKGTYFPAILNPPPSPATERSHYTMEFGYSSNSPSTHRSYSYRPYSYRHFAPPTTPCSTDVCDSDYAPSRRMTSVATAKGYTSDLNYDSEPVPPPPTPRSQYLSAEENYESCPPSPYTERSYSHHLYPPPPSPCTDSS
In the case of R253E, the “effect of a mutation on the interaction” value is given as “disrupting interaction”.
